Results on nine molecules are retold here after patent publication US20240150797A1, “BIOCATALYTICAL PRODUCTION OF DIHYDROCHALCONES” (Symrise AG, priority 2021, published 2024).

Assay type in all cases: biochemical
Common to all, as to conditions: purified CHI in 50 mM PBS, 100 μM substrate, 25° C.

Data set [1] in a line: Specific activity of purified CHI, absorbance decrease at 384 nm, homoeriodictyol chalcone. On the procedure:
(§1) E. coli BL21 (DE3) cells containing one of the pET28b plasmids from Table 2 or Table 3 were used to inoculate 1 L LB medium at OD of 0.1. Cells were incubated at 37° C., 250 rpm until the OD reached 0.4-0.6 and induced by supplementing with 0.1 mM IPTG. After protein expression at 28° C., 250 rpm for 16 h, the cells were harvested by centrifugation at 4,000×g for 15 min. The harvested cells were lysed with 0.5 mg/mL lysozyme (Sigma-Aldrich), 0.4 U/mL Benzonase (Sigma-Aldrich) and BugBuster (Merck) at room temperature for 0.5 h to obtain a crude cell extract. The crude extract was centrifuged at 10,000×g for 30 min to remove the pellet. Recombinant proteins were purified by Ni-affinity chromatography (GE Healthcare). The supernatant of the crude extract was loaded on the column with 20 mM imidazole. The column was washed by 5 column volumes of 30 mM imidazole with 20 mM PBS (pH 7.4) and 500 mM NaCl. The target proteins were eluted by 150 mM imidazole with 20 mM PBS (pH 7.4) and 500 mM NaCl. Buffer exchange with 50 mM PBS (pH 7.5) was achieved by ultrafiltration with Amicon Ultra-15 (Merck). The activity of the respective purified enzyme was determined by measuring the absorbance decrease at 384 nm in the reaction mix (CHI in 50 mM PBS with 100 μM of either naringenin chalcone, hesperetin chalcone, eriodictyol chalcone, homoeriodictyol chalcone or 4-O-methyl butein at 25° C.).

The nature of data set [2]: Specific activity of purified CHI, absorbance decrease at 384 nm, hesperetin chalcone. On the procedure: as §1
A short description of data set [3]: Specific activity of purified CHI, absorbance decrease at 384 nm, eriodictyol chalcone. The protocol: as §1
Data set [4] in a line: Specific activity of purified CHI, absorbance decrease at 384 nm, naringenin chalcone. The protocol: as §1
The nature of data set [5]: Specific activity of purified CHI, absorbance decrease at 384 nm, 4-O-methyl butein. On the procedure:
as §1

Substitutions are numbered along the chain they refer to.

B1: CHI2: Chalcone isomerase from Tepidanaerobacter acetatoxydans, access no. WP_013779275.1 (protein)
chain: DTEFKPMRSLIYVGVAKEEYRHKLKNWLYRYHIPDSISQFAPYVTKYAFYNALPVPPEGERFGAYNMQLTEHYWLINPMNPQLKIKAFTEFFPVDVLKWQGNIPDDADADSVNIEGDAARSSGGDNGMPPFIFAFIPFWWEEDFKGAGRTVEDGPNYRWQFLIQYPNGISLEEGDQWFYKKLVPAFKEMPEVNRFLTSRVIRDVNDCQFHRVIEMWFDGPEEWYRAAVEKGKSIERPHWATAEEFPYLKPKFQIASLFLTDIADSDNYSQYRGYITMR
modifications: Tepidanaerobacter acetatoxydans
Take B1: in data set [1], the “Specific activity, Homoeriodctiol chalcone” value is reported as 19.9. In addition, the “Specific activity, Hesperetin chalcone” value in data set [2] is 93.5. Also, the “Specific activity, Eriodictyol chalcone” value in data set [3] is reported as 25.4. Moreover, in data set [4], the “Specific activity, Naringenin chalcone” value is given as 54.8. Further, the “Specific activity, 4-O-methyl butein” value in data set [5] came out at 0.8.

B2: CHI5: Chalcone isomerase from Parasporobacterium paucivorans, access no. WP_073993359.1 (protein)
chain: GPEFQPMRSLIYVDCVKEEYRHRLQNWLYHYHVPDSISQFAPYVSKYCFYNALPTPPEGERFGTIRQQLTEHYWMVNPFTEHFKNKALTEYFPCDVLKWQGNIPDDDLEVNFEGDEARSKGGHNGCAPFIFAFLPLCWEEDFKGKERTIENGPNYRWNFVMKYPEGTSMEEGDKWFYEKMIPAFQEMPEVTRILTSKVIQSINGCAFHRVVEMWFDGPNAWYQAAVVKAKNIEKPSWASVDAFPYLQATFEFDGIFLTDYAASDNMSQYRGYLAMR
modifications: Parasporobacterium paucivorans
Consider B2, for which, in data set [1], the “Specific activity, Homoeriodctiol chalcone” value is on record as 19.7. Moreover, the “Specific activity, Hesperetin chalcone” value in data set [2] was 84.5. For the same molecule, the “Specific activity, Eriodictyol chalcone” value in data set [3] was found to be 82.7. Moreover, the “Specific activity, Naringenin chalcone” value in data set [4] is recorded as 59.9. Moreover, the “Specific activity, 4-O-methyl butein” value in data set [5] was found to be 0.4.

B3: CHI4: Chalcone isomerase from Acetoanaerobium noterae, access no. WP_079589066.1 (protein, listed as Acetoanaerobium noterae)
chain: ADFEFNPMRSLIYVDVVKEDYRHMLKHWLYRHHIPDSISQFGPYVTKYAFYPALPTPPEGDRFGTIRMQLTEHYWTVNPFTSNFKNKAFTEFFPIDILKWQGNIPDDSKVAALEGEEVVKLEGDDARASGGDNGCPPFIFAFVPICWEEDFKGSQRTVEDGPNYRWQFVMKYPEGVTMKEGDKWFYEEMIPKFKDMPDVLRILSSKIIQQVNGCPYHRVVEMWFNCPSAWYRSAVEKAKEIKKPSWAKYDVFPYLKPKFEIASLFLTDIAESDNYSQYRGYITMR
For B3, in data set [1], the “Specific activity, Homoeriodctiol chalcone” value worked out at 15.2. The “Specific activity, Hesperetin chalcone” value in data set [2] worked out at 58.5. For the same molecule, the “Specific activity, Eriodictyol chalcone” value in data set [3] came out at 34.4. Further, in data set [4], the “Specific activity, Naringenin chalcone” value amounted to 46.6. The “Specific activity, 4-O-methyl butein” value in data set [5] amounted to 0.4.

B4: CHI1: Chalcone isomerase from Fusibacter sp. 3D3, access no. WP_069876268.1 (protein)
chain: SYVPEFKPMRSFILNNVRSDNDRPKAFRWLYKQHVPESISQFRPYCTKYATYHALPLVEGAEQFGTYNWIMTEHYWNFNIFQDKGLGHSRGLAFTEAYPHDFMEITCQPPSNTLRQSGWQGSAEGYHPIVFCFAPIFWENDFKGSERLTDDGANFRWLFFLSYPEGVTVEEGDQWFLETFAKEAAEMPEVIRFLSSRVMDSPRINPFDRIVELWFDDSEAWHNAMVKNGHLFTKPAWSKVDQFPFFEAYKDITGVFIMDRPDSDHLAQWQGYITTR
modifications: Fusibacter sp. 3D3
In the case of B4, the “Specific activity, Homoeriodctiol chalcone” value in data set [1] was 11.3. In data set [2], the “Specific activity, Hesperetin chalcone” value is 16.7. The “Specific activity, Eriodictyol chalcone” value in data set [3] is 18.2. For the same molecule, the “Specific activity, Naringenin chalcone” value in data set [4] is recorded as 21.3. Besides, the “Specific activity, 4-O-methyl butein” value in data set [5] stood at 0.2.

B5: CHI12: Chalcone isomerase from Holophaga foetida, access no. WP_005036737.1 (protein, listed as Holophaga foetida)
chain: TVEFCPMRSLIYVGLSKEKYRHLLQNWLYRIHIPDSISQFGPYVTKYAFYNALPVPPEGERFGTIKMQLTEHYWQCNPFQQAVAVKTFKEVFPIDVLRWQGNMPDESDGAVELEGDEARSAKGGQGAKPFIFAFVPLWWEEDIKGKMRTIADGPNYRWQFVMKYPEGVSQEQGDKWFLEEVAPAFAAMPEVNRILSSKIIQNVNGCSFNRVVEMWFDGPDEWYAAAVTKAAALPKPTWAKQDKFPFLASDYEFASVFLTDYATSDNLSQYRGYITLR
As for B5, the “Specific activity, Hesperetin chalcone” value in data set [2] came out at 36.5. Further, the “Specific activity, Eriodictyol chalcone” value in data set [3] amounted to 28.2. Further, the “Specific activity, Naringenin chalcone” value in data set [4] is given as 32.4. Further, the “Specific activity, 4-O-methyl butein” value in data set [5] is reported as 0.2.

B6: CHIera Mut11: Chalcone isomerase variant 11 from Eubacterium ramulus, genetically engineered (protein, listed as Eubacterium ramulus)
chain: MADFKFEPMRSLIYVDCVSEDYRPKLQRWIYKVHIPDSISQFEPYVTKYAFYPSFPIPPQGDRFGYARMQLTEHHWLVSPLDPRLEIKAIAETFPMDVLVWQGQIPAAAHTDAQIDSDGDAGDAARKSNNAEGNPFIFAFLPMWWEKDLKGKGRTIEDGANYRFNMTIGFPEGVDKAEGEKWLFEKVVPILQAAPECTRVLASAVKKDINGCVMDWVLEIWFENQSGWYKVMVDDMKALEKPSWAQQDAFPFLKPYHNVCSAAVADYTPSNNLANYRGYITMR
As for B6, in data set [1], the “Specific activity, Homoeriodctiol chalcone” value was determined as 30.8. The “Specific activity, Hesperetin chalcone” value in data set [2] is given as 75.5. In addition, the “Specific activity, Eriodictyol chalcone” value in data set [3] was 91.1. The “Specific activity, Naringenin chalcone” value in data set [4] is on record as 76.8.

B7: CHIera Mut12: Chalcone isomerase variant 12 from Eubacterium ramulus, genetically engineered (protein, listed as Eubacterium ramulus)
chain: B6 chain with Q41K, K88N, G122A, D123R
B7: the “Specific activity, Homoeriodctiol chalcone” value in data set [1] is 9.8. Moreover, the “Specific activity, Hesperetin chalcone” value in data set [2] is 24.9. Moreover, the “Specific activity, Eriodictyol chalcone” value in data set [3] is 19.9. Besides, the “Specific activity, Naringenin chalcone” value in data set [4] worked out at 11.0.

B8: CHIera Mut14: Chalcone isomerase variant 14 from Eubacterium ramulus, genetically engineered (protein, listed as Eubacterium ramulus)
chain: B6 chain with Q41K, P80E, K88N, G122H, D123R
Regarding B8, in data set [1], the “Specific activity, Homoeriodctiol chalcone” value came out at 15.6. In addition, the “Specific activity, Hesperetin chalcone” value in data set [2] was 4.5. Also, in data set [3], the “Specific activity, Eriodictyol chalcone” value was 27.2. For the same molecule, in data set [4], the “Specific activity, Naringenin chalcone” value was determined as 29.5.

B9: CHI6: Chalcone isomerase from Lachnoclostridium sp., access no. HCD45524.1 (protein, listed as Lachnoclostridium sp.)
chain: GTEFDPMRSFIYVDVIKEEYRHKLQHWLYFHHIPESISQFEPYCTKYAFYNALPVPEGGERFGTARMQITEHSWLVNIMDPALKVKAFQEYMPIEALKWQGTVPETAGDVLMSGDDARCTGGNNGCMPFVFAFCPMWWEEDVKGAGRTLTEGANYRWNFALTYPEGISKEEGDKWLFEEVFPYFEANNCCTRILTSKVRQEINGCPMYRVVEMWFTGPTAWHHLAVETADKIKSPSWAKDGDVFPYLKSGFEIRGAFVTDYPTCDAYSQYRGYIPRR
As for B9, the “Specific activity, Homoeriodctiol chalcone” value in data set [1] is given as 8.1. In addition, the “Specific activity, Hesperetin chalcone” value in data set [2] is listed as 3.3. For the same molecule, in data set [3], the “Specific activity, Eriodictyol chalcone” value is 17.0. For the same molecule, the “Specific activity, Naringenin chalcone” value in data set [4] worked out at 16.8. The “Specific activity, 4-O-methyl butein” value in data set [5] is reported as 0.1.
